These results are taken from the supplement of paper PMC10126150.

± gives the standard deviation of the averaged measurements.

This data set deals with ATP. As to the kind of experiment: switch fluorescence ratio, 500 uM ATP over buffer (Cy3 cluster intensity, sum of 5 cycles each) (fold (ratio)); higher = stronger signal-on switching upon ATP binding; sequences stand for … in TCGTCGGCAGCGTCAGATGTGTATAAGAGACAGTTTTTTTTTTTTTTTTTTTTTTTTT…TC. Conditions: aptamer strand: ATP DNA aptamer (quencher-CACCTGGGGGAGTATTGCGGAGGAAGG + anchor), 100 nM annealed; ATP concentration: 500 uM. The method, boiled down:
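The fluorescence ratio divides summed target-cycle Cy3 intensity by summed buffer-cycle Cy3 intensity for each cluster and is averaged per switch-domain sequence. Cy3-labelled switching-strand clusters on a modified Illumina MiSeq flow-cell were annealed to 100 nM quencher-labelled ATP aptamer, then imaged in selection buffer and again after 15 min with 500 uM ATP at 22 °C. Five such cycles were run, with NaOH stripping and re-annealing between them, and clusters outside 100-1000 RFU were excluded.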
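Also: ATP exposure 15 min at 22 °C before imaging.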

In the case of TATTGAAATT, the switch fluorescence ratio was found to be 1.05 ± 0.022.

On to GTTTTTATGA, for which the switch fluorescence ratio came out at 0.973 ± 0.017.

For TTTTTGTGGC, the switch fluorescence ratio worked out at 0.985 ± 0.03.

As for AACGAAACTT, the switch fluorescence ratio stood at 1.123 ± 0.0042.

As for TGAGGTTAGT, the switch fluorescence ratio stood at 1.09 ± 0.19.

Regarding CCCCAGAGCT, the switch fluorescence ratio was determined as 1.66 ± 0.066.

Regarding GATTCCGTTG, the switch fluorescence ratio was found to be 1.04 ± 0.016.

With GCTTCGAGGG, the switch fluorescence ratio amounted to 0.968 ± 0.013.

On to GTGGACTTGC, for which the switch fluorescence ratio was determined as 0.973 ± 0.042.

Regarding GTGATTGGCT, the switch fluorescence ratio is 0.978 ± 0.016.

Turning to GGGTTTAGTA, the switch fluorescence ratio amounted to 0.998 ± 0.02.

As for AAAAATGGCT, the switch fluorescence ratio stood at 1.04 ± 0.091.

With TTTGTAGGCA, the switch fluorescence ratio turned out to be 0.989 ± 0.011.

On to TTTAGTGTAA, for which the switch fluorescence ratio was found to be 0.966 ± 0.019.

For the sequence GACCCGCTTG, the switch fluorescence ratio stood at 1.06 ± 0.013.

On to AGGGTTGGCT, for which the switch fluorescence ratio worked out at 1.02 ± 0.052.

In the case of CTGGGTATTT, the switch fluorescence ratio was found to be 0.999 ± 0.04.

In the case of AGAATTAAGG, the switch fluorescence ratio turned out to be 1.01 ± 0.045.

Turning to AACTGGTCGC, the switch fluorescence ratio was found to be 1.14 ± 0.07.

Take TCATCTTGTC: the switch fluorescence ratio stood at 1.01 ± 0.04.

As to ATGATAGCTT, the switch fluorescence ratio was determined as 1 ± 0.026.

Consider AAGATATCGA, for which the switch fluorescence ratio turned out to be 1.02 ± 0.014.

For TCCGGGCTGG, the switch fluorescence ratio came out at 1.02 ± 0.013.

As for GGGGGATGGG, the switch fluorescence ratio is 0.998 ± 0.032.

For the sequence TGCAGGATAT, the switch fluorescence ratio was determined as 1.61 ± 0.57.

As to AGTTATGGGG, the switch fluorescence ratio was 1 ± 0.032.

As to TTCCCCGGCA, the switch fluorescence ratio stood at 1.28 ± 0.35.

On to TGGGTGAATT, for which the switch fluorescence ratio was determined as 0.98 ± 0.017.

In the case of CTAGGATCTA, the switch fluorescence ratio turned out to be 0.996 ± 0.062.

Turning to ATTATTGGCA, the switch fluorescence ratio is 0.999 ± 0.0024.

Take TCCAGGGCGG: the switch fluorescence ratio stood at 1.06 ± 0.022.

Consider TGGGGGCAAA, for which the switch fluorescence ratio amounted to 0.987 ± 0.03.

Consider ACTTTGGGTT, for which the switch fluorescence ratio stood at 1.01 ± 0.023.

Consider TTGATTAAGA, for which the switch fluorescence ratio was 1.06 ± 0.078.

As for ATTCTGGGGA, the switch fluorescence ratio is 0.988 ± 0.026.

For TTCGCTACGT, the switch fluorescence ratio is 1.02 ± 0.021.

For the sequence AATGTTTTGT, the switch fluorescence ratio is 0.994 ± 0.021.

With AATTCTGAGA, the switch fluorescence ratio is 1.02 ± 0.048.

As to CCGTCGAATA, the switch fluorescence ratio turned out to be 2.2 ± 0.027.

Consider CGACAGGATG, for which the switch fluorescence ratio was 1.01 ± 0.033.

On to CTAGGAGGGC, for which the switch fluorescence ratio was found to be 1 ± 0.027.

AATTAGGAGT: the switch fluorescence ratio was found to be 1.06 ± 0.079.

For the sequence AGGTCTAGAG, the switch fluorescence ratio stood at 0.976 ± 0.024.

As for TACGAGTGGT, the switch fluorescence ratio is 0.99394 ± 0.00054.

For AAAAGCGTGG, the switch fluorescence ratio came out at 1 ± 0.019.

Regarding TGTATATTGG, the switch fluorescence ratio is 0.995 ± 0.015.

For AGTGAGTGCA, the switch fluorescence ratio was found to be 1.039 ± 0.0094.

As to CGCCGCACTT, the switch fluorescence ratio came to 3.93 ± 1.1.

Turning to GTTGGAATTG, the switch fluorescence ratio came to 0.992 ± 0.024.

In the case of AAGTACGTTG, the switch fluorescence ratio is 1.12 ± 0.057.

As to ACTGGCGGCG, the switch fluorescence ratio was 1 ± 0.012.

Take TGGGGACCCT: the switch fluorescence ratio was determined as 0.991 ± 0.014.

On to ACGGGGGAGC, for which the switch fluorescence ratio came out at 1.03 ± 0.043.

Regarding TGCGGTCCTG, the switch fluorescence ratio was 1 ± 0.017.

On to GGTAAAGGGA, for which the switch fluorescence ratio came out at 1.01 ± 0.036.

On to AATTGTGCCG, for which the switch fluorescence ratio is 1.1 ± 0.17.

Consider ACGGCATTTG, for which the switch fluorescence ratio was 1.05 ± 0.024.

For TACTTGAGGC, the switch fluorescence ratio is 1.11 ± 0.21.

On to TTTATTGCAT, for which the switch fluorescence ratio came out at 1.018 ± 0.0082.

Regarding AAAAAAGGAT, the switch fluorescence ratio turned out to be 1.024 ± 0.0086.

As for TTATAATAG, the switch fluorescence ratio amounted to 1.039 ± 0.0073.

With GGGAATGGGC, the switch fluorescence ratio stood at 0.991 ± 0.066.

For the sequence AGTGGGATTA, the switch fluorescence ratio came to 1.01 ± 0.021.

As for TTTGGTGGGT, the switch fluorescence ratio is 0.975 ± 0.012.

Consider AGCATTGTTT, for which the switch fluorescence ratio came out at 0.985 ± 0.023.

Consider TCTGAGGGTT, for which the switch fluorescence ratio turned out to be 1.13 ± 0.12.

Take ATCCTTGTTT: the switch fluorescence ratio stood at 0.997 ± 0.083.

Turning to CAGTTAGCAG, the switch fluorescence ratio was found to be 1.06 ± 0.025.

As to GGGGGGATTA, the switch fluorescence ratio came to 0.992 ± 0.035.

With CGGATCCCGA, the switch fluorescence ratio came out at 0.995 ± 0.018.

Take GAAAGTTAAA: the switch fluorescence ratio came out at 1.038 ± 0.0091.

As to TTTGTGTTTG, the switch fluorescence ratio was 0.999 ± 0.016.

Regarding ATCGTGGTCA, the switch fluorescence ratio was 0.987 ± 0.018.

As for TAAATCCGGA, the switch fluorescence ratio worked out at 0.995 ± 0.06.

Regarding TGCTGGATTA, the switch fluorescence ratio is 1.01 ± 0.031.

On to GAAAAAACGT, for which the switch fluorescence ratio is 1.05 ± 0.038.

As to GCTGCGACCA, the switch fluorescence ratio is 1.131 ± 0.0024.

Regarding AAGAGTTAGG, the switch fluorescence ratio was 0.966 ± 0.031.

Take GCTATATGGC: the switch fluorescence ratio was found to be 1.01 ± 0.024.

As to ATCAGATTAC, the switch fluorescence ratio was 1.025 ± 0.0092.

TACGTGGTTG: the switch fluorescence ratio is 0.99 ± 0.014.

Consider TTTGTAGCAC, for which the switch fluorescence ratio amounted to 1.31 ± 0.072.

With TGGGTTTGTC, the switch fluorescence ratio stood at 0.96 ± 0.049.

On to GGAAATTCAT, for which the switch fluorescence ratio worked out at 1.36 ± 0.54.

On to GTGGGGGGCT, for which the switch fluorescence ratio amounted to 0.984 ± 0.029.

On to CATGTCAAGA, for which the switch fluorescence ratio came to 1.01 ± 0.036.

Regarding GATTTAAGAG, the switch fluorescence ratio was found to be 0.988 ± 0.029.

Regarding GATAAATGTT, the switch fluorescence ratio is 0.985 ± 0.01.

As to GATTAAAAGT, the switch fluorescence ratio worked out at 0.969 ± 0.011.

Consider ATTGGGCAGC, for which the switch fluorescence ratio came to 1 ± 0.027.

GACGAAGGT: the switch fluorescence ratio came out at 1.01 ± 0.052.

On to GTGGTATGCA, for which the switch fluorescence ratio came out at 1.02 ± 0.074.

Turning to CATGAATTCA, the switch fluorescence ratio is 1.04 ± 0.033.

In the case of TTTAAAGAGT, the switch fluorescence ratio was found to be 0.972 ± 0.022.

For AGTGGGCTAT, the switch fluorescence ratio was 0.999 ± 0.027.

On to TTTGAGCTCT, for which the switch fluorescence ratio came to 0.97 ± 0.014.

Take AGGCGTGGGA: the switch fluorescence ratio was 1.001 ± 0.0083.

Turning to TTTGGCTTTC, the switch fluorescence ratio was found to be 1.06 ± 0.016.

Turning to TAAACACCTG, the switch fluorescence ratio worked out at 1.02 ± 0.095.

On to CCTCATGGCA, for which the switch fluorescence ratio stood at 2.11 ± 0.17.

GGGTGCTGCC: the switch fluorescence ratio came out at 1 ± 0.037.

Regarding ACTTTTTTT, the switch fluorescence ratio came to 1 ± 0.0022.

For the sequence TTGCAAGAGG, the switch fluorescence ratio is 1.02 ± 0.024.

As for ACCGAATGTT, the switch fluorescence ratio stood at 0.999 ± 0.022.

Consider GATTGTGTTA, for which the switch fluorescence ratio stood at 1.01 ± 0.043.

For the sequence GTTCCAGAGG, the switch fluorescence ratio worked out at 1.03 ± 0.011.

As to ATTTTATTAT, the switch fluorescence ratio is 1.01 ± 0.024.

As for GAGTGTTCAG, the switch fluorescence ratio turned out to be 0.997 ± 0.018.

As for AATTTGATAG, the switch fluorescence ratio was 0.988 ± 0.018.

Regarding TGATGGACGG, the switch fluorescence ratio was 1 ± 0.022.

For the sequence TCATCAGTCT, the switch fluorescence ratio came to 0.995 ± 0.039.

Take CGGCCTTGGT: the switch fluorescence ratio was 1.01 ± 0.044.

As for GGAGGACTCG, the switch fluorescence ratio came to 0.982 ± 0.05.

As to GGGAAGGTCT, the switch fluorescence ratio stood at 0.994 ± 0.03.

Turning to CCAAATGTCT, the switch fluorescence ratio was 1.016 ± 0.0049.

Take CTTCAGGTTG: the switch fluorescence ratio came to 1.016 ± 0.0024.

CTCAGAAACG: the switch fluorescence ratio turned out to be 1.03 ± 0.04.

CTAATAATCG: the switch fluorescence ratio turned out to be 1 ± 0.015.

ATTCGTTCGA: the switch fluorescence ratio is 0.9955 ± 0.0033.

TATTCATCGT: the switch fluorescence ratio came out at 0.9932 ± 0.0075.
